Results on nine molecules are retold here after patent publication US9322042B2, “Thermostable cellulases, and mutants thereof, capable of hydrolyzing cellulose in ionic liquid” (The Regents of the University of California, priority 2009, dated 2016).

The assay can be described thus: Beta-1,4-endoglucanase (CMCase) activity assay of Cel5ATm mutants. It counts as biochemical. The method, then:
CMCase activity assay is carried out in 50 mM Bis-Tris-HCl buffer (pH 6.5) containing 1% carboxylmethylcellulose (CMC) and incubated at 75° C. for 30 min. Reducing sugars are analyzed by DNS method as described in Xiao Z, Storms R and Tsang A (2005) “Microplate-based carboxymethylcellulose assay for endoglucanase activity”, Anal. Biochem. 342: 176-178. Cellobiose is used as reducing sugars standard. 1 U is defined as enzyme amount to produce 1 μmol reducing sugars in one minute at optimal conditions.
5 μl supernatant is mixed with 35 μl sterile ddH2O and 40 μl 2% CMC in 100 mM Bis-Tris-HCl (pH 6.5) in 96-well PCR plates. These plates are incubated in thermocyclers at 75° C. for 30 min. 80 μl of DNS reagent is added (Ref 1), mixed and incubated at 95° C. for 5 min. The solution is cooled to 4° C. and transferred 100 μl of the products into 96-well plate for reading the ABS at 540 nm.
Clones from the mutant library are analyzed as described for the wild-type of Cel5ATm except that after transferring normal cultures into autoinduction medium, normal culture plates are added by sterile glycerol to 10%, mixed and stored at −80° C. for future investigation. The clones with endoglucanase activity larger than 120% of the wild-type are selected to express the enzymes in 5 ml culture and purified by Ni-NTA columns. Activity improvements are confirmed by detection of their specific activity (U/mg) and plasmids sequencing.

B1: P2H8: T. maritima Cel5A cellulase mutant with D40N and L231R; SEQ ID NO: 2 (protein, listed as Thermotoga maritima)
chain: MGVDPFERNKILGRGINIGNALEAPNEGDWGVVIKDEFFNIIKEAGFSHVRIPIRWSTHAYAFPPYKIMDRFFKRVDEVINGALKRGLAVVINIHHYEELMNDPEEHKERFLALWKQIADRYKDYPETLFFEILNEPHGNLTPEKWNELLEEALKVIRSIDKKHTIIIGTAEWGGISALEKLSVPKWEKNSIVTIHYYNPFEFTHQGAEWVEGSEKWLGRKWGSPDDQKHRIEEFNFIEEWSKKNKRPIYIGEFGAYRKADLESRIKWTSFVVREMEKRRWSWAYWEFCSGFGVYDTLRKTWNKDLLEALIGGDSIE
For B1, the “improvement of cellulase activity over the wild-type T. maritima cellulase” value is given as “about 40.56%”.

B2: P1E3: T. maritima Cel5A cellulase mutant with E98A and E106D; SEQ ID NO: 1 (protein, listed as Thermotoga maritima)
chain: MGVDPFERNKILGRGINIGNALEAPNEGDWGVVIKDEFFDIIKEAGFSHVRIPIRWSTHAYAFPPYKIMDRFFKRVDEVINGALKRGLAVVINIHHYAELMNDPEDHKERFLALWKQIADRYKDYPETLFFEILNEPHGNLTPEKWNELLEEALKVIRSIDKKHTIIIGTAEWGGISALEKLSVPKWEKNSIVTIHYYNPFEFTHQGAEWVEGSEKWLGRKWGSPDDQKHLIEEFNFIEEWSKKNKRPIYIGEFGAYRKADLESRIKWTSFVVREMEKRRWSWAYWEFCSGFGVYDTLRKTWNKDLLEALIGGDSIE
On to B2, for which the “improvement of cellulase activity over the wild-type T. maritima cellulase” value is listed as “about 31.77%”.

B3: P15B10: T. maritima Cel5A cellulase mutant with D29V and I92F; SEQ ID NO: 7 (protein, listed as Thermotoga maritima)
chain: MGVDPFERNKILGRGINIGNALEAPNEGVWGVVIKDEFFDIIKEAGFSHVRIPIRWSTHAYAFPPYKIMDRFFKRVDEVINGALKRGLAVVFNIHHYEELMNDPEEHKERFLALWKQIADRYKDYPETLFFEILNEPHGNLTPEKWNELLEEALKVIRSIDKKHTIIIGTAEWGGISALEKLSVPKWEKNSIVTIHYYNPFEFTHQGAEWVEGSEKWLGRKWGSPDDQKHLIEEFNFIEEWSKKNKRPIYIGEFGAYRKADLESRIKWTSFVVREMEKRRWSWAYWEFCSGFGVYDTLRKTWNKDLLEALIGGDSIE
B3: the “improvement of cellulase activity over the wild-type T. maritima cellulase” value is given as “about 33.79%”.

B4: P8E4: T. maritima Cel5A cellulase mutant with A113V; SEQ ID NO: 5 (protein, listed as Thermotoga maritima)
chain: MGVDPFERNKILGRGINIGNALEAPNEGDWGVVIKDEFFDIIKEAGFSHVRIPIRWSTHAYAFPPYKIMDRFFKRVDEVINGALKRGLAVVINIHHYEELMNDPEEHKERFLVLWKQIADRYKDYPETLFFEILNEPHGNLTPEKWNELLEEALKVIRSIDKKHTIIIGTAEWGGISALEKLSVPKWEKNSIVTIHYYNPFEFTHQGAEWVEGSEKWLGRKWGSPDDQKHLIEEFNFIEEWSKKNKRPIYIGEFGAYRKADLESRIKWTSFVVREMEKRRWSWAYWEFCSGFGVYDTLRKTWNKDLLEALIGGDSIE
Take B4: the “improvement of cellulase activity over the wild-type T. maritima cellulase” value is on record as “about 49.06%”.

B5: P3D7: T. maritima Cel5A cellulase mutant with E308K; SEQ ID NO: 3 (protein, listed as Thermotoga maritima)
chain: MGVDPFERNKILGRGINIGNALEAPNEGDWGVVIKDEFFDIIKEAGFSHVRIPIRWSTHAYAFPPYKIMDRFFKRVDEVINGALKRGLAVVINIHHYEELMNDPEEHKERFLALWKQIADRYKDYPETLFFEILNEPHGNLTPEKWNELLEEALKVIRSIDKKHTIIIGTAEWGGISALEKLSVPKWEKNSIVTIHYYNPFEFTHQGAEWVEGSEKWLGRKWGSPDDQKHLIEEFNFIEEWSKKNKRPIYIGEFGAYRKADLESRIKWTSFVVREMEKRRWSWAYWEFCSGFGVYDTLRKTWNKDLLKALIGGDSIE
As to B5, the “improvement of cellulase activity over the wild-type T. maritima cellulase” value is reported as “about 78.76%”.

B6: P15H11: T. maritima Cel5A cellulase mutant with S177R; SEQ ID NO: 22 (protein, listed as Thermotoga maritima)
chain: MGVDPFERNKILGRGINIGNALEAPNEGDWGVVIKDEFFDIIKEAGFSHVRIPIRWSTHAYAFPPYKIMDRFFKRVDEVINGALKRGLAVVINIHHYEELMNDPEEHKERFLALWKQIADRYKDYPETLFFEILNEPHGNLTPEKWNELLEEALKVIRSIDKKHTIIIGTAEWGGIRALEKLSVPKWEKNSIVTIHYYNPFEFTHQGAEWVEGSEKWLGRKWGSPDDQKHLIEEFNFIEEWSKKNKRPIYIGEFGAYRKADLESRIKWTSFVVREMEKRRWSWAYWEFCSGFGVYDTLRKTWNKDLLEALIGGDSIE
For the molecule B6, the “improvement of cellulase activity over the wild-type T. maritima cellulase” value is listed as “about 35.98%”.

B7: P13F6: T. maritima Cel5A cellulase mutant with E132D, N140S, E202K and K304N; SEQ ID NO: 6 (protein, listed as Thermotoga maritima)
chain: MGVDPFERNKILGRGINIGNALEAPNEGDWGVVIKDEFFDIIKEAGFSHVRIPIRWSTHAYAFPPYKIMDRFFKRVDEVINGALKRGLAVVINIHHYEELMNDPEEHKERFLALWKQIADRYKDYPETLFFDILNEPHGSLTPEKWNELLEEALKVIRSIDKKHTIIIGTAEWGGISALEKLSVPKWEKNSIVTIHYYNPFKFTHQGAEWVEGSEKWLGRKWGSPDDQKHLIEEFNFIEEWSKKNKRPIYIGEFGAYRKADLESRIKWTSFVVREMEKRRWSWAYWEFCSGFGVYDTLRKTWNNDLLEALIGGDSIE
Turning to B7, the “improvement of cellulase activity over the wild-type T. maritima cellulase” value is “about 68.51%”.

B8: P15G2: T. maritima Cel5A cellulase mutant with K35N, E209G and A256T; SEQ ID NO: 8 (protein, listed as Thermotoga maritima)
chain: MGVDPFERNKILGRGINIGNALEAPNEGDWGVVINDEFFDIIKEAGFSHVRIPIRWSTHAYAFPPYKIMDRFFKRVDEVINGALKRGLAVVINIHHYEELMNDPEEHKERFLALWKQIADRYKDYPETLFFEILNEPHGNLTPEKWNELLEEALKVIRSIDKKHTIIIGTAEWGGISALEKLSVPKWEKNSIVTIHYYNPFEFTHQGAGWVEGSEKWLGRKWGSPDDQKHLIEEFNFIEEWSKKNKRPIYIGEFGTYRKADLESRIKWTSFVVREMEKRRWSWAYWEFCSGFGVYDTLRKTWNKDLLEALIGGDSIE
With B8, the “improvement of cellulase activity over the wild-type T. maritima cellulase” value is reported as “about 66.92%”.

B9: P4B5: T. maritima Cel5A cellulase mutant with K155N; SEQ ID NO: 4 (protein, listed as Thermotoga maritima)
chain: MGVDPFERNKILGRGINIGNALEAPNEGDWGVVIKDEFFDIIKEAGFSHVRIPIRWSTHAYAFPPYKIMDRFFKRVDEVINGALKRGLAVVINIHHYEELMNDPEEHKERFLALWKQIADRYKDYPETLFFEILNEPHGNLTPEKWNELLEEALNVIRSIDKKHTIIIGTAEWGGISALEKLSVPKWEKNSIVTIHYYNPFEFTHQGAEWVEGSEKWLGRKWGSPDDQKHLIEEFNFIEEWSKKNKRPIYIGEFGAYRKADLESRIKWTSFVVREMEKRRWSWAYWEFCSGFGVYDTLRKTWNKDLLEALIGGDSIE
Turning to B9, the “improvement of cellulase activity over the wild-type T. maritima cellulase” value was “about 33.02%”.
